Experimental data as given in US7531500B2, “Preventing airway mucus production by administration of EGF-R antagonists” (The Regents of the University of California, priority 1998, dated 2009).

Columns and labels:
[1] = tested on: NCI-H292 cells; assay: Immunoassay of MUC5AC protein in NCI-H292 cells (Example 2); format: cell-based, human
Procedure: Cell Culture. NCI-H292 cells, a human pulmonary mucoepidermoid carcinoma cell line, were grown in RPMI 1640 medium containing 10% fetal bovine serum, penicillin (100 U/ml), streptomycin (100 μg/ml) and Hepes (25 mM) at 37° C. in a humidified 5% CO2, water-jacketed incubator. Either 6-well culture plates or 8-chamber slides were used to culture the cells. […] The cells were then washed and incubated with fresh medium alone. Experiments were terminated at preselected times (for mRNA, 6 h and 12 h; for protein, 24 h). As controls, cells were incubated with medium alone for same time periods. […] In inhibition studies with blocking antibodies to EGF-R ligands, the supernatants were pretreated with anti-TGFα antibody (Calbiochem) or anti-EGF antibody for 30 min and then added to NCI-H292 cells. The role of oxygen free radicals was examined using scavengers of oxygen free radical DMSO (1%, Sigma), 1,3-dimethyl-2-thiourea (DMTU, 50 mM, Sigma), or superoxide dismutase (SOD, 300 U/ml, Sigma).
Preparation of Cigarette Smoke Solution. Research cigarettes (code2R1, produced for the University of Kentucky Tobacco and Health Research Foundation) were used in the study. Cigarette smoke solution was prepared as previously described (Dusser et al. (1989) J. Clin. Invest. 84:900-906). In brief, cigarette smoke was withdrawn into a polypropylene syringe (35 ml) at a rate of one puff/min (10 times) and bubbled slowly into 20 ml of RPM11640 containing 50 mM Hepes buffer. The smoke solution was then titrated to pH 7,4 and used immediately after preparation.
Immunoassay of MUC5AC Protein. MUC5AC protein was measured as described above. In brief, cell lysates were prepared with PBS at multiple dilutions, and 50 μl of each sample was incubated with bicarbonate-carbonate buffer (50 μl) at 40° C. in a 96-well plate (Maxisorp Nunc, Fisher Scientific, Santa Clara, Calif.), until dry. Plates were washed three times with PBS and blocked with 2% BSA (fraction V, Sigma) for 1 h at room temperature. Plates were again washed three times with PBS and then incubated with 50 μl of mouse monoclonal MUC5AC antibody (1:100) that was diluted with PBS containing 0.05% Tween 20. After 1 h, the wells were washed three times with PBS, and 100 μl horseradish peroxidase-goat anti-mouse IgG conjugate (1:10,000, Sigma) was dispensed into each well. After 1 h, plates were washed three times with PBS. Color reaction was developed with TMB peroxidase solution (Kirkegaard & Perry Laboratories, Gaithersburg, Md.) and stopped with 2N H2SO4. Absorbance was read at 450 nm.

[2] = tested on: sensitized rats; assay: Goblet cell production in ovalbumin-sensitized rats (asthma model); format: in vivo, rat; conditions: for Goblet cells in tracheal epithelium: counted over 2 mm basal lamina, 5 rats
Procedure: Sensitization. Rats were sensitized on days 0 and 10 with intraperitoneal injections of ovalbumin (10 mg, grade V; Sigma, St. Louis, Mo.), complexed with 100 mg of aluminum hydroxide in 0.5 ml of sterile saline, Rats then rested for 10 days. On day 20, ovalbumin was delivered directly into the trachea; animals were challenged with 100 μl of 0.1% ovalbumin in saline by intratracheal instillation three times (days 20, 22 and 24). Rats were euthanized either without challenge (day 20), or 48 h after the third challenge (day 26). This procedure induced goblet cell metaplasia. To block the goblet cell hyperplasia, sensitized rats were pretreated with an EGF-R tyrosine kinase inhibitor, BIBX1522. On days of ovalbumin challenge (days 20, 22 and 24), sensitized rats were pretreated with BIBX1 522 (10 mg/kg, i.p., 1 h before the challenge) and then BIBX1522 was also instilled into the trachea together with ovalbumin (BIBX1522, 10^−5M, 100 μl). BIBX1522 was also injected i.p. every 24 h until the day before the rats were euthanized. After the animals were euthanized, the trachea was removed 48 h after the third challenge.
Tissue preparation. At preselected times during anesthesia, the systemic circulation was perfused with 1% paraformaldehyde in DEPC-treated PBS at a pressure of 120 mmHg. The trachea was then removed and placed in 4% paraformaldehyde for 24 h. After fixation, trachea and lungs were embedded in either JB-4 plus monomer solution A for cell analysis or O.C.T. compound (Sakura Finetek U.S.A., Inc., Torrance, Calif.) for immunohistochemistry and in situ hybridization. The embedded tissues were cut as cross sections ([…] thick) and placed on slides.
Cell analysis. We counted the total number of epithelial cells by counting epithelial cell nuclei over 2 mm of the basal lamina with an oil immersion objective lens (×1000 magnification). The linear length of the basal lamina under each analyzed region of epithelium was determined by tracing the contour of the digitized image of the basal lamina. After instillation of stimuli, “developing” goblet cells form. These cells have Alcian blue/PAS-positive granules, but the size of granules is small, and the number of cytoplasmic granules is few. We call these “developing” goblet cells “pre-goblet cells”, a stage before cells become mature goblet cells. Goblet cells are tall, cuboidal, goblet to low columnar in shape, with abundant Alcian blue/PAS-stained granules filling most of the cytoplasm between the nucleus and the luminal surface. Pre-goblet cells are defined as cells with smaller mucus-stained areas (<1/3 height in epithelium from basement membrane to luminal surface) or with sparsely and lightly Alcian blue/PAS-stained, small granules. Ciliated cells are recognized by their ciliated borders, lightly stained cytoplasm, and large round nuclei. Non-granulated secretory cells are columnar in shape and extend from the lumen to the basal lamina. The cytoplasm stains light pink color, and a few tiny PAS-positive and Alcian blue-negative granules are observed in the cytoplasm. Basal cells are small flattened cells with a large nucleus, located just above the basal lamina but not reaching the airway lumen.
Quantification of goblet cell production. Goblet cell production, was determined by the volume density of Alcian blue/PAS-stained mucosubstances on the mucosal surface epithelium using a semi-automatic imaging system described elsewhere (Weber et al. (1984) Science 224:294-297). We measured the Alcian blue/PAS-positive stained area and the total epithelial area and expressed the data as the percentage of the total area stained by Alcian blue-PAS. The analysis was performed with the public domain NIH Image program (developed at the U.S. National Institute of Health and available from the Internet by anonymous FTP from zippy.nimh.gov or on floppy disk from the National Technical Information Service, Springfield, Va., part number PB95-500195GEI).

IL-8: recombinant human IL-8 (Genzyme)
MUC5AC synthesis, stimulus alone without neutrophils ([1]; 1 h incubation, protein at 24 h, IL-8 10^-8 M, fMLP 10^-8 M, TNFα 20 ng/ml): no effect

CNC(=S)NC [DMTU, 1,3-dimethyl-2-thiourea]
MUC5AC synthesis by supernatant of activated neutrophils, cigarette smoke and H2O2 ([1]; DMSO 1%, DMTU 50 mM, SOD 300 U/ml): significantly inhibited

B1: Ova: ovalbumin, grade V (Sigma), used to sensitize and challenge rats (protein, UniProt P01012 2-386, looked up)
Ovalbumin: GSIGAASMEFCFDVFKELKVHHANENIFYCPIAIMSALAMVYLGAKDSTRTQINKVVRFDKLPGFGDSIEAQCGTSVNVHSSLRDILNQITKPNDVYSFSLASRLYAEERYPILPEYLQCVKELYRGGLEPINFQTAADQARELINSWVESQTNGIIRNVLQPSSVDSQTAMVLVNAIVFKGLWEKAFKDEDTQAMPFRVTEQESKPVQMMYQIGLFRVASMASEKMKILELPFASGTMSMLVLLPDEVSGLEQLESIINFEKLTEWTSSNVMEERKIKVYLPRMKMEEKYNLTSVLMAMGITDVFSSSANLSGISSAESLKISQAVHAAHAEINEAGREVVGSAEAGVDAASVSEEFRADHPFLFCIKHIATNAVLFFGRCVSP
% of AB/PAS-stained area ([2]; Ova i.p. + i.t.): 38.7 ± 6.2 %
Basal cells in tracheal epithelium ([2]; Ova i.p. + i.t.): 59.8 ± 2.9
Ciliated cells in tracheal epithelium ([2]; Ova i.p. + i.t.): 52.4 ± 7.1
Indeterminate cells in tracheal epithelium ([2]; Ova i.p. + i.t.): 2.6 ± 0.5
Pre-goblet cells in tracheal epithelium ([2]; Ova i.p. + i.t.): 36.0 ± 6.3
Secretory cells in tracheal epithelium ([2]; Ova i.p. + i.t.): 49.8 ± 4.2
Total cells in tracheal epithelium ([2]; Ova i.p. + i.t.): 238.8 ± 4.4
% of AB/PAS-stained area ([2]; Ova i.p. only): 7.8 ± 2.9%
Basal cells in tracheal epithelium ([2]; Ova i.p. only): 60.2 ± 3.4
Ciliated cells in tracheal epithelium ([2]; Ova i.p. only): 56.4 ± 3.8
Indeterminate cells in tracheal epithelium ([2]; Ova i.p. only): 1.4 ± 0.2
Pre-goblet cells in tracheal epithelium ([2]; Ova i.p. only): 13.8 ± 1.4
Secretory cells in tracheal epithelium ([2]; Ova i.p. only): 67.6 ± 7.0
Total cells in tracheal epithelium ([2]; Ova i.p. only): 204.8 ± 6.6
Goblet cells in tracheal epithelium ([2]; Ova sensitization i.p. + i.t.): 38.2 ± 6.3
Goblet cells in tracheal epithelium ([2]; Ova sensitization i.p. only): 5.4 ± 1.5
